From patent US20240083965A1 (Novo Nordisk, published 2024)
*1 amine or outer side, *2 acyl side, *3 side chain or, on linkers, in order; H or OH if unused. Where no end group is shown, it is not given here. Side-chain parts run from the residue outwards. [ ]: non-standard residue; d: D form. The star is where a group is joined. C16 diacid = O=C(O)CCCCCCCCCCCCCCC(=O)*; γGlu = O=C(O)[C@H](CCC(=O)[*:2])N[*:1]; AEEA = NCCOCCOCC(=O)O; Aib = CC(C)(N)C(=O)O

T1: human GIP receptor (human, UniProt P48546 22-466)
T1 sequence (looked up): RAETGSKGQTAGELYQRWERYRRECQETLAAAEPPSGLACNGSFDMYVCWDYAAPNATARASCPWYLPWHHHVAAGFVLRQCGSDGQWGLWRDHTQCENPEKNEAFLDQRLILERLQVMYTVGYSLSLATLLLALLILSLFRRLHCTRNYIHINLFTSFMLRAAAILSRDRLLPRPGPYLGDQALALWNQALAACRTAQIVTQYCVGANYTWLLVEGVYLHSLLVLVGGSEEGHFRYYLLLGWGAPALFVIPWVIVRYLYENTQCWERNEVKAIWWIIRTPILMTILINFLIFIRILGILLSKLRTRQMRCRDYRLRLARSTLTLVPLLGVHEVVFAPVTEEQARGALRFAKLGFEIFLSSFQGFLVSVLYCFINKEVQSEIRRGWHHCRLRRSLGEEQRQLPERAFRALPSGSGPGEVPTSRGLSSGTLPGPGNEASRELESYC


What was measured:
human GIP receptor = target: T1, human GIP receptor; assay: cell-based or functional assay
human GLP-1 receptor = human GLP-1 receptor (human, UniProt P43220 24-463); assay: cell-based or functional assay

| Molecule | hGIPR, CRE Luc 0% HSA EC50 (pM) (human GIP receptor) | hGIPR, CRE Luc 1% HSA EC50 (pM) (human GIP receptor) | hGLP-1R, CRE Luc 0% HSA EC50 (pM) (human GLP-1 receptor) | hGLP-1R, CRE Luc 1% HSA EC50 (pM) (human GLP-1 receptor) |
| --- | --- | --- | --- | --- |
| human GIP (from UniProt P09681 52-93) (ligand) | 11.3 | 6.4 | – | – |
| Y[Aib]EGTFTSDYSILLEEQAAREFIEWLLAGGPSKGAPPPS-OH (not fully specified (residue 33)) [Parent compound No. 3] | 5.6 | 444 | 4 | 360 |
| Y[Aib]EGTFTSDYSILLEEQAAREFIEWLLAGGPSK([AEEA-AEEA-γGlu-C16 diacid])GAPPPS-OH (N-terminus assumed; SMILES CC[C@H](C)[C@H](NC(=O)[C@H](Cc1ccccc1)NC(=O)[C@H](CCC(=O)O)NC(=O)[C@H](CCCNC(=N)N)NC(=O)[C@H](C)NC(=O)[C@H](C)NC(=O)[C@H](CCC(N)=O)NC(=O)[C@H](CCC(=O)O)NC(=O)[C@H](CCC(=O)O)NC(=O)[C@H](CC(C)C)NC(=O)[C@H](CC(C)C)NC(=O)[C@@H](NC(=O)[C@H](CO)NC(=O)[C@H](Cc1ccc(O)cc1)NC(=O)[C@H](CC(=O)O)NC(=O)[C@H](CO)NC(=O)[C@@H](NC(=O)[C@H](Cc1ccccc1)NC(=O)[C@@H](NC(=O)CNC(=O)[C@H](CCC(=O)O)NC(=O)C(C)(C)NC(=O)[C@@H](N)Cc1ccc(O)cc1)[C@@H](C)O)[C@@H](C)O)[C@@H](C)CC)C(=O)N[C@@H](CCC(=O)O)C(=O)N[C@@H](Cc1c[nH]c2ccccc12)C(=O)N[C@@H](CC(C)C)C(=O)N[C@@H](CC(C)C)C(=O)N[C@@H](C)C(=O)NCC(=O)NCC(=O)N1CCC[C@H]1C(=O)N[C@@H](CO)C(=O)N[C@@H](CCCCNC(=O)COCCOCCNC(=O)COCCOCCNC(=O)CC[C@H](NC(=O)CCCCCCCCCCCCCCC(=O)O)C(=O)O)C(=O)NCC(=O)N[C@@H](C)C(=O)N1CCC[C@H]1C(=O)N1CCC[C@H]1C(=O)N1CCC[C@H]1C(=O)N[C@@H](CO)C(=O)O) [Parent compound No. 1] | 3.1 | 156 | 2.1 | 154 |
| Y[Aib]EGTFTSDYSILLEKQAAREFIEWLLAGGPSSGAPPPS-OH (not fully specified (residue 16)) [Parent compound No. 4] | 4.7 | 188 | 4.2 | 202 |
| Y[Aib]EGTFTSDYSILLEEQAAREFIEWLLAGGPSKGAPPPS-OH (not fully specified (residue 33)) [Parent compound No. 2] | 1.8 | 97 | 1.5 | 111 |
